# Starred links: 1 amine or outer side, 2 acyl side, 3 side chain; linkers in the order of their positions; H or OH if unused. Non-standard residues stand in square brackets, D forms with d. Groups on a side chain read outwards from the residue. No end group written: not given here. *: point of attachment. C20 diacid = O=C(O)CCCCCCCCCCCCCCCCCCC(=O)*; C18 diacid = O=C(O)CCCCCCCCCCCCCCCCC(=O)*; γGlu = O=C(O)[C@H](CCC(=O)[*:2])N[*:1]; AEEA = NCCOCCOCC(=O)O; Aib = CC(C)(N)C(=O)O
# Molecular target: human corticotropin-releasing factor 2α (CRF2 α receptor) (human), Q13324
# Sequence (Q13324 20-411): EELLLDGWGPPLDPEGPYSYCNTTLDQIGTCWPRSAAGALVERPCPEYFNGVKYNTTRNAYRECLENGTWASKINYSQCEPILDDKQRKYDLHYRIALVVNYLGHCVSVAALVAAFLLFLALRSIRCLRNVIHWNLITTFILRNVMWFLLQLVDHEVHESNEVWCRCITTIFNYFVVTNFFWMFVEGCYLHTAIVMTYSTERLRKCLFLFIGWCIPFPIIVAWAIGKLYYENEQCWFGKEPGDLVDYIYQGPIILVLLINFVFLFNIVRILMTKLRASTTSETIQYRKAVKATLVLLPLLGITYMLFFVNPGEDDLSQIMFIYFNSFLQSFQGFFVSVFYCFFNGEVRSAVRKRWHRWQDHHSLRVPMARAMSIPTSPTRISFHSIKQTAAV
# Experiment: cell-based or functional assay
Binder,"EC50 [nM], 0% HSA","EC50 [nM], 0.1% HSA"
IVLSLD[dV]PIKLK([AEEA-AEEA-γGlu-γGlu-C18 diacid])QILLKQARQK[Aib]QRAQAEKNKRILERV-NH2 (N-terminus assumed; SMILES CC[C@H](C)[C@H](N)C(=O)N[C@H](C(=O)N[C@@H](CC(C)C)C(=O)N[C@@H](CO)C(=O)N[C@@H](CC(C)C)C(=O)N[C@@H](CC(=O)O)C(=O)N[C@@H](C(=O)N1CCC[C@H]1C(=O)N[C@H](C(=O)N[C@@H](CCCCN)C(=O)N[C@@H](CC(C)C)C(=O)N[C@@H](CCCCNC(=O)COCCOCCNC(=O)COCCOCCNC(=O)CC[C@H](NC(=O)CC[C@H](NC(=O)CCCCCCCCCCCCCCCCC(=O)O)C(=O)O)C(=O)O)C(=O)N[C@@H](CCC(N)=O)C(=O)N[C@H](C(=O)N[C@@H](CC(C)C)C(=O)N[C@@H](CC(C)C)C(=O)N[C@@H](CCCCN)C(=O)N[C@@H](CCC(N)=O)C(=O)N[C@@H](C)C(=O)N[C@@H](CCCNC(=N)N)C(=O)N[C@@H](CCC(N)=O)C(=O)N[C@@H](CCCCN)C(=O)NC(C)(C)C(=O)N[C@@H](CCC(N)=O)C(=O)N[C@@H](CCCNC(=N)N)C(=O)N[C@@H](C)C(=O)N[C@@H](CCC(N)=O)C(=O)N[C@@H](C)C(=O)N[C@@H](CCC(=O)O)C(=O)N[C@@H](CCCCN)C(=O)N[C@@H](CC(N)=O)C(=O)N[C@@H](CCCCN)C(=O)N[C@@H](CCCNC(=N)N)C(=O)N[C@H](C(=O)N[C@@H](CC(C)C)C(=O)N[C@@H](CCC(=O)O)C(=O)N[C@@H](CCCNC(=N)N)C(=O)N[C@H](C(N)=O)C(C)C)[C@@H](C)CC)[C@@H](C)CC)[C@@H](C)CC)C(C)C)C(C)C) [SEQ ID NO: 174],0.07 nM,0.88 nM
IVLSLD[dV]PIKLK([AEEA-AEEA-γGlu-C20 diacid])QILLKQERQK[Aib]QREQAEKNKQILAQV-NH2 (N-terminus assumed; SMILES CC[C@H](C)[C@H](N)C(=O)N[C@H](C(=O)N[C@@H](CC(C)C)C(=O)N[C@@H](CO)C(=O)N[C@@H](CC(C)C)C(=O)N[C@@H](CC(=O)O)C(=O)N[C@@H](C(=O)N1CCC[C@H]1C(=O)N[C@H](C(=O)N[C@@H](CCCCN)C(=O)N[C@@H](CC(C)C)C(=O)N[C@@H](CCCCNC(=O)COCCOCCNC(=O)COCCOCCNC(=O)CC[C@H](NC(=O)CCCCCCCCCCCCCCCCCCC(=O)O)C(=O)O)C(=O)N[C@@H](CCC(N)=O)C(=O)N[C@H](C(=O)N[C@@H](CC(C)C)C(=O)N[C@@H](CC(C)C)C(=O)N[C@@H](CCCCN)C(=O)N[C@@H](CCC(N)=O)C(=O)N[C@@H](CCC(=O)O)C(=O)N[C@@H](CCCNC(=N)N)C(=O)N[C@@H](CCC(N)=O)C(=O)N[C@@H](CCCCN)C(=O)NC(C)(C)C(=O)N[C@@H](CCC(N)=O)C(=O)N[C@@H](CCCNC(=N)N)C(=O)N[C@@H](CCC(=O)O)C(=O)N[C@@H](CCC(N)=O)C(=O)N[C@@H](C)C(=O)N[C@@H](CCC(=O)O)C(=O)N[C@@H](CCCCN)C(=O)N[C@@H](CC(N)=O)C(=O)N[C@@H](CCCCN)C(=O)N[C@@H](CCC(N)=O)C(=O)N[C@H](C(=O)N[C@@H](CC(C)C)C(=O)N[C@@H](C)C(=O)N[C@@H](CCC(N)=O)C(=O)N[C@H](C(N)=O)C(C)C)[C@@H](C)CC)[C@@H](C)CC)[C@@H](C)CC)C(C)C)C(C)C) [SEQ ID NO: 173],0.03 nM,3.49 nM

# The remaining lines, values ahead:
"EC50 [nM], 0% HSA","EC50 [nM], 0.1% HSA",Binder
0.06 nM,3.64 nM,IVLSLD[dV]PIKLK([AEEA-AEEA-γGlu-C20 diacid])QILLKQARQK[Aib]QRAQAEKNKRILERV-NH2 (N-terminus assumed; SMILES CC[C@H](C)[C@H](N)C(=O)N[C@H](C(=O)N[C@@H](CC(C)C)C(=O)N[C@@H](CO)C(=O)N[C@@H](CC(C)C)C(=O)N[C@@H](CC(=O)O)C(=O)N[C@@H](C(=O)N1CCC[C@H]1C(=O)N[C@H](C(=O)N[C@@H](CCCCN)C(=O)N[C@@H](CC(C)C)C(=O)N[C@@H](CCCCNC(=O)COCCOCCNC(=O)COCCOCCNC(=O)CC[C@H](NC(=O)CCCCCCCCCCCCCCCCCCC(=O)O)C(=O)O)C(=O)N[C@@H](CCC(N)=O)C(=O)N[C@H](C(=O)N[C@@H](CC(C)C)C(=O)N[C@@H](CC(C)C)C(=O)N[C@@H](CCCCN)C(=O)N[C@@H](CCC(N)=O)C(=O)N[C@@H](C)C(=O)N[C@@H](CCCNC(=N)N)C(=O)N[C@@H](CCC(N)=O)C(=O)N[C@@H](CCCCN)C(=O)NC(C)(C)C(=O)N[C@@H](CCC(N)=O)C(=O)N[C@@H](CCCNC(=N)N)C(=O)N[C@@H](C)C(=O)N[C@@H](CCC(N)=O)C(=O)N[C@@H](C)C(=O)N[C@@H](CCC(=O)O)C(=O)N[C@@H](CCCCN)C(=O)N[C@@H](CC(N)=O)C(=O)N[C@@H](CCCCN)C(=O)N[C@@H](CCCNC(=N)N)C(=O)N[C@H](C(=O)N[C@@H](CC(C)C)C(=O)N[C@@H](CCC(=O)O)C(=O)N[C@@H](CCCNC(=N)N)C(=O)N[C@H](C(N)=O)C(C)C)[C@@H](C)CC)[C@@H](C)CC)[C@@H](C)CC)C(C)C)C(C)C) [SEQ ID NO: 175]
0.11 nM,3.05 nM,IVLSLD[dV]PIKLK([AEEA-AEEA-γGlu-γGlu-C18 diacid])QILLKQERQKKQRQQAEKNKQILAQV-NH2 (N-terminus assumed; SMILES CC[C@H](C)[C@H](N)C(=O)N[C@H](C(=O)N[C@@H](CC(C)C)C(=O)N[C@@H](CO)C(=O)N[C@@H](CC(C)C)C(=O)N[C@@H](CC(=O)O)C(=O)N[C@@H](C(=O)N1CCC[C@H]1C(=O)N[C@H](C(=O)N[C@@H](CCCCN)C(=O)N[C@@H](CC(C)C)C(=O)N[C@@H](CCCCNC(=O)COCCOCCNC(=O)COCCOCCNC(=O)CC[C@H](NC(=O)CC[C@H](NC(=O)CCCCCCCCCCCCCCCCC(=O)O)C(=O)O)C(=O)O)C(=O)N[C@@H](CCC(N)=O)C(=O)N[C@H](C(=O)N[C@@H](CC(C)C)C(=O)N[C@@H](CC(C)C)C(=O)N[C@@H](CCCCN)C(=O)N[C@@H](CCC(N)=O)C(=O)N[C@@H](CCC(=O)O)C(=O)N[C@@H](CCCNC(=N)N)C(=O)N[C@@H](CCC(N)=O)C(=O)N[C@@H](CCCCN)C(=O)N[C@@H](CCCCN)C(=O)N[C@@H](CCC(N)=O)C(=O)N[C@@H](CCCNC(=N)N)C(=O)N[C@@H](CCC(N)=O)C(=O)N[C@@H](CCC(N)=O)C(=O)N[C@@H](C)C(=O)N[C@@H](CCC(=O)O)C(=O)N[C@@H](CCCCN)C(=O)N[C@@H](CC(N)=O)C(=O)N[C@@H](CCCCN)C(=O)N[C@@H](CCC(N)=O)C(=O)N[C@H](C(=O)N[C@@H](CC(C)C)C(=O)N[C@@H](C)C(=O)N[C@@H](CCC(N)=O)C(=O)N[C@H](C(N)=O)C(C)C)[C@@H](C)CC)[C@@H](C)CC)[C@@H](C)CC)C(C)C)C(C)C) [SEQ ID NO: 176]

# Source: patent US12679878B2, “CRF2 receptor agonists and their use in therapy” (SANOFI, priority 2020, dated 2026)
